Molecular target: the molecule itself
Assay: cryo-EM structure

B1: truncated β3-SBP (GABAA receptor β3 subunit, M3-M4 loop replaced by SQPARAA), from Expi293F cells (receptor)
chain: QSVNDPGNMSFVKETVDKLLKGYDIRLRPDFGGPPVCVGMNIDIASIDMVSEVNMDYTLTMYFQQYWRDKRLAYSGIPLNLTLDNRVADQLWVPDTYFLNDKKSFVHGVTVKNRMIRLHPDGTVLYGLRITTTAACMMDLRRYPLDEQNCTLEIESYGYTTDDIEFYWRGGDKAVTGVERIELPQFSIVEHRLVSRNVVFATGAYPRLSLSFRLKRNIGYFILQTYMPSILITILSWVSFWINYDASAARVALGITTVLTMTTINTHLRETLPKIPYVKAIDMYLMGCFVFVFLALLEYAFVNYIFFSQPARAAAIDRWSRIVFPFTFSLFNLVYWLYYVN
stoichiometry N: 5

Source: article doi:10.1101/2025.09.29.679341 (bioRxiv, 2025)
